Where a chain is given by its changes, count along the chain named. Names may count otherwise.
Key:
[1] = substrate: N[C@@H](CC1(C(=O)O)C=CC(O)C=C1)C(=O)O; experiment: ADH and PDH assay: steady-state kinetics and Tyr inhibition, SolyncADH D224N; format: biochemical, Solanum lycopersicum (tomato); details: other: 0.5 mM NADP^+, pH 7.6, 37° C.
Description: (§1) Kinetic parameters of purified recombinant proteins were determined from assays conducted at varying arogenate (19.5 μM-5 mM) and prephenate concentration (23.4 μM-6 mM). Standard assay conditions were 25 mM HEPES pH 7.6, 50 mM KCl and 10% (v/v) ethylene glycol, and 0.5 mM NADP^+ with varied substrate, concentrations. Reactions were initiated by addition of enzyme and incubated at 37° C. monitored every 10-15 seconds at […] using a microplate reader (Tecan Genios). Kinetic parameters were determined by fitting initial velocity data to the Michaelis-Menten equation using the Origin software (OriginLab).
(§2) Arogenate was prepared by enzymatic conversion of prephenate (Sigma-Aldrich) as previously reported^56. For Tyr inhibition assays, Tyr was dissolved in a slightly basic solution (0.025 N NaOH) due to solubility issues, thus the concentration of lysis buffer was increased to 500 mM HEPES final concentration to buffer against the changes by addition of Tyr in the reaction. Reactions containing varying amounts of Tyr (10 μM-8 mM) with 0.5 mM NADP^+ and either 1 mM arogenate or 0.8 mM prephenate were monitored as above.

[2] = substrate: O=C(O)C(=O)CC1(C(=O)O)C=CC(O)C=C1; experiment: as above; format: biochemical, Solanum lycopersicum (tomato); details: other: 0.5 mM NADP^+, pH 7.6, 37° C.
Description: as §1, §2

[3] = substrate: N[C@@H](CC1(C(=O)O)C=CC(O)C=C1)C(=O)O; experiment: ADH and PDH assay: steady-state kinetics and Tyr inhibition, MtPDH C220D; format: biochemical, Medicago truncatula; details: other: 0.5 mM NADP^+, pH 7.6, 37° C.
Description: as §1, §2

[4] = substrate: O=C(O)C(=O)CC1(C(=O)O)C=CC(O)C=C1; experiment: as above; format: biochemical, Medicago truncatula; details: other: 0.5 mM NADP^+, pH 7.6, 37° C.
Description: as §1, §2

[5] = substrate: N[C@@H](CC1(C(=O)O)C=CC(O)C=C1)C(=O)O; experiment: ADH and PDH assay: steady-state kinetics and Tyr inhibition, MtncADH D220C; format: biochemical, Medicago truncatula; details: other: 0.5 mM NADP^+, pH 7.6, 37° C.
Description: as §1, §2

[6] = substrate: O=C(O)C(=O)CC1(C(=O)O)C=CC(O)C=C1; experiment: as above; format: biochemical, Medicago truncatula; details: other: 0.5 mM NADP^+, pH 7.6, 37° C.
Description: as §1, §2

[7] = PDH assay: steady-state kinetics of purified recombinant plant enzymes with prephenate; format: biochemical; details: prephenate versus arogenate, NADP+ cofactor
From the text: As used herein, a polypeptide may “have greater arogenate dehydrogenase activity than prephenate dehydrogenase activity” or “have greater prephenate dehydrogenase activity than arogenate dehydrogenase activity” when the steady-state kinetic parameters (kcat/Km (mM^−1s^−1)) for arogenate dehydrogenase activity are greater than the steady-state parameters (kcat/Km (mM^−1s^−1)) for prephenate dehydrogenase activity or when the steady-state kinetic parameters (kcat/Km (mM^−1s^−1)) for prephenate dehydrogenase activity are greater than the steady-state parameters (kcat/Km (mM^−1s^−1)) for arogenate dehydrogenase activity. Steady-state kinetic parameters may be measured using techniques similar to those described by the inventors in the Examples. Briefly, kinetic parameters of purified polypeptides can be determined from assays conducted at varying arogenate and prephenate concentrations. Standard assay conditions include 25 mM HEPES pH 7.6, 50 mM KCl and 10% (v/v) ethylene glycol, and 0.5 mM NADP^+ with varied substrate, concentrations. Reactions can be initiated by the addition of the polypeptide and incubated at 37° C. monitored every 10-15 seconds at A340nm using a microplate reader. Kinetic parameters may be determined by fitting initial velocity data to the Michaelis-Menten equation using the Origin software.
as §1

[8] = Tyr inhibition assay of ADH activity (arogenate substrate); format: biochemical; details: Tyr up to 8 mM
Description: as §2

[9] = substrate: N[C@@H](CC1(C(=O)O)C=CC(O)C=C1)C(=O)O; experiment: ADH and PDH assay: steady-state kinetics and Tyr inhibition, GmPDH1 N222D; format: biochemical, Glycine max (soybean); details: other: 0.5 mM NADP^+, pH 7.6, 37° C.
Description: as §1, §2

[10] = substrate: O=C(O)C(=O)CC1(C(=O)O)C=CC(O)C=C1; experiment: as above; format: biochemical, Glycine max (soybean); details: other: 0.5 mM NADP^+, pH 7.6, 37° C.
Description: as §1, §2

[11] = substrate: O=C(O)C(=O)CC1(C(=O)O)C=CC(O)C=C1; experiment: ADH and PDH assay: steady-state kinetics and Tyr inhibition, GmPDH1 N222A; format: biochemical, Glycine max (soybean); details: other: 0.5 mM NADP^+, pH 7.6, 37° C.
Description: as §1, §2

[12] = substrate: N[C@@H](CC1(C(=O)O)C=CC(O)C=C1)C(=O)O; experiment: ADH and PDH assay: steady-state kinetics and Tyr inhibition, GmPDH1 M219T; format: biochemical, Glycine max (soybean); details: other: 0.5 mM NADP^+, pH 7.6, 37° C.
Description: as §1, §2

[13] = substrate: O=C(O)C(=O)CC1(C(=O)O)C=CC(O)C=C1; experiment: as above; format: biochemical, Glycine max (soybean); details: other: 0.5 mM NADP^+, pH 7.6, 37° C.
Description: as §1, §2

[14] = substrate: N[C@@H](CC1(C(=O)O)C=CC(O)C=C1)C(=O)O; experiment: ADH and PDH assay: steady-state kinetics and Tyr inhibition, GmPDH1 M219T/N222D; format: biochemical, Glycine max (soybean); details: other: 0.5 mM NADP^+, pH 7.6, 37° C.
Description: as §1, §2

[15] = substrate: O=C(O)C(=O)CC1(C(=O)O)C=CC(O)C=C1; experiment: as above; format: biochemical, Glycine max (soybean); details: other: 0.5 mM NADP^+, pH 7.6, 37° C.
Description: as §1, §2

[16] = substrate: N[C@@H](CC1(C(=O)O)C=CC(O)C=C1)C(=O)O; experiment: ADH and PDH assay: steady-state kinetics and Tyr inhibition, GmncADH D218N; format: biochemical, Glycine max (soybean); details: other: 0.5 mM NADP^+, pH 7.6, 37° C.
Description: as §1, §2

[17] = substrate: O=C(O)C(=O)CC1(C(=O)O)C=CC(O)C=C1; experiment: as above; format: biochemical, Glycine max (soybean); details: other: 0.5 mM NADP^+, pH 7.6, 37° C.
Description: as §1, §2

B1: Solanum lycopersicum SolyncADH variant D224N (Solanum lycopersicum; D224N) (protein)
chain: MSSSSSCQPKTLRIGIIGFGPFAQFLAKTMMKQGHCIHVTSRSDYSELCTDLGILFFRDMGAFLESDNEVIMISTSILSLSQVVESIPFNCLKRPTLFVDVLSVKEHPKDVLLRMMPRECDLLCTHPMFGPESGKDGWEDLTFMYDMVRIRDQPLCSSFLHIFSSEGCKMLEMTCEKHDRLAAQSQFLTHTIGRILSEMEVEPTPIDTKGFQKLVQVKESSVKNSFDLFSGLFIHNRFARQQMKNLEVALEKTKEKLQERSKELQDPIISKF
notes: D224N by site-directed mutagenesis
Work on B1 yielded a Km [1] of 1340 ± 480 µM, a kcat [1] of 11.7 ± 0.2 s⁻¹ and a kcat/Km [1] of 8730 M⁻¹ s⁻¹. For the same molecule, the Km [2] was 2310 ± 100 µM, the kcat [2] was 2.4 ± 1 s⁻¹ and the kcat/Km [2] was 1040 M⁻¹ s⁻¹.

B2: Medicago truncatula MtPDH variant C220D, SEQ ID NO: 1 (Medicago truncatula; C220D) (protein)
chain: MSSSSKSLKIGIVGFGTFGQFLANTMIKQGHTLTATSRTDYSQLCDQMGIHFFRDITAFLDADMDVILLCTSISSLSEVVGSMPLACLKRPTLFVDVLSVKEHPKNLLLKVLPEESDILCTHPMFGPVSGKNGWQNLTFMFDKVRIKDEVTCSKFLQIFASEGCKMVEMSCEEHDKAAAKSQFITHTIGRTLAEMDIKSTPIDTKGFQTLVELKKPVMGDSFDLYSGLFVYNRFARQELENLEHALHKVKEMLVQRIDEGQNPERTES
Molecule B2 has a Km [3] of 270 ± 10 µM, a kcat [3] of 46.8 ± 4.2 s⁻¹ and a kcat/Km [3] of 173000 M⁻¹ s⁻¹. The Km [4] was 1530 ± 90 µM, the kcat [4] was 0.5 ± 0.1 s⁻¹ and the kcat/Km [4] was 327 M⁻¹ s⁻¹.

B3: Medicago truncatula MtncADH variant D220C, SEQ ID NO: 10 (Medicago truncatula; D220C) (protein)
chain: MSNSPSLKIGIVGFGSFGQFLAKTMIKQGHTLTATSRTDYSHTCLQLGIQFFRDVGTFIEANNDVILICTSIMSFTKVLSSMPLACLKKPTTLFVDVLSVKEHPREVLLRVLPEESDILCTHPMFGPESGKNGWKDLNFMYDKVRIHDEATCSNFLHIFASEGCKMLQMSCEEHDKIAAKSQFITHTIGRTLAEMDIESTPIDTKGFQTLTQLKNTTMRCSFDLYSGLFVHNRFAKQELENLQRALDRVKEMLVQRMREELGPEKD
notes: D220C by site-directed mutagenesis
For B3, the Km [5] was 870 ± 30 µM, the kcat [5] was 7 ± 0.8 s⁻¹ and the kcat/Km [5] was 8050 M⁻¹ s⁻¹. For the same molecule, the Km [6] was 740 ± 30 µM, the kcat [6] was 10.1 ± 0.5 s⁻¹ and the kcat/Km [6] was 13600 M⁻¹ s⁻¹.

B4: MtncADH D220C: site-directed mutant of M. truncatula noncanonical ADH, Asp220 to Cys (protein)
chain: B3 chain
modifications: Synthetic: MtncADH D220C
notes: site-directed mutant of M. truncatula noncanonical ADH, Asp220 to Cys
In the case of B4, the “substrate specificity: PDH versus ADH activity (in words)” value [7] is reported as “reduced ADH activity and enhanced PDH activity” and the “feedback inhibition by Tyr (in words)” value [8] is reported as “significantly less sensitive to Tyr inhibition than the respective wild-type enzymes”.

B5: Glycine max GmPDH1 variant N222D, SEQ ID NO: 2 (Glycine max; N222D) (protein)
chain: MSTSSSSQSLKIGIVGFGNFGQFLAKTMIKQGHTLTATSRSDYSELCLQMGIHFFRDVSAFLTADIDVIVLCTSILSLSEVVGSMPLTSLKRPTLFVDVLSVKEHPRELLLRELPEDSDILCTHPMFGPQTAKNGWTDHTFMYDKVRIRDEVICSNFIQIFATEGCKMVQMSCEEHDRAAAKSQFITHTIGRTLGEMDIQSTPIDTKGFETLVKLKETMMRDSFDLYSGLFVYNRFARQELENLEHALHKVKETLMIQRTNGEQGHKRTES
For B5, the Km [9] was 530 ± 180 µM, the kcat [9] was 27.8 ± 3.5 s⁻¹ and the kcat/Km [9] was 52400 M⁻¹ s⁻¹. The Km [10] was 7580 ± 1130 µM, the kcat [10] was 19.1 ± 1.4 s⁻¹ and the kcat/Km [10] was 2520 M⁻¹ s⁻¹.

B6: Glycine max GmPDH1 variant N222A (Glycine max; N222A) (protein)
chain: B5 chain with D222A
With B6 the Km [11] was 190 ± 40 µM, the kcat [11] was 6.6 ± 0.3 s⁻¹ and the kcat/Km [11] was 34700 M⁻¹ s⁻¹.

B7: Glycine max GmPDH1 variant M219T (Glycine max; M219T) (protein)
chain: B5 chain with M219T, D222N
With B7 the Km [12] was 1550 ± 140 µM, the kcat [12] was 4.6 ± 0.3 s⁻¹ and the kcat/Km [12] was 2970 M⁻¹ s⁻¹. It also gave a Km [13] of 100 ± 20 µM, a kcat [13] of 30.3 ± 0.8 s⁻¹ and a kcat/Km [13] of 303000 M⁻¹ s⁻¹.

B8: Glycine max GmPDH1 variant M219T/N222D (Glycine max; M219T/N222D) (protein)
chain: B5 chain with M219T
Work on B8 yielded a Km [14] of 630 ± 180 µM, a kcat [14] of 29 ± 4.4 s⁻¹ and a kcat/Km [14] of 46000 M⁻¹ s⁻¹. For the same molecule, the Km [15] was 1180 ± 120 µM, the kcat [15] was 2.5 ± 0.3 s⁻¹ and the kcat/Km [15] was 2120 M⁻¹ s⁻¹.

B9: Glycine max GmncADH variant D218N (Glycine max; D218N) (protein)
chain: MSTWSLKIGVVGFGSFGQFLAKTMIKQGHTLRATSRTDYSLLCLPMGIQFFRDVAAFLEADNDVILVCTSILSLSEVLSSMPLTCLKRSTLFVDVLSVKEHPRNLLIKVLPEESDILCTHPMFGPDSGKDGWQDLTFVYDKVRIRDEAICSSFLHIFASEGCRMLQMSCEEHDKIAAKSQFITHTIGRTLAEMDIKSTPIDTKGFHSLVQLKDTTIRNSFDLYSGLFLHNRFAVQELENLEHALHKVKEMLVQRKSEELGLEKTEC
notes: D218N by site-directed mutagenesis
Work on B9 yielded a Km [16] of 740 ± 140 µM, a kcat [16] of 8.6 ± 0.2 s⁻¹ and a kcat/Km [16] of 11600 M⁻¹ s⁻¹. It also gave a Km [17] of 1980 ± 50 µM, a kcat [17] of 11.5 ± 0.5 s⁻¹ and a kcat/Km [17] of 5810 M⁻¹ s⁻¹.

B10: GmncADH: noncanonical arogenate dehydrogenase from soybean, wild-type (protein)
chain: B9 chain with N218D
modifications: GmncADH WT
notes: noncanonical arogenate dehydrogenase from soybean, wild-type
For B10, the “substrate specificity: PDH versus ADH activity (in words)” value [7] was “only displayed activity with arogenate” and the “feedback inhibition by Tyr (in words)” value [8] was “sensitive to Tyr but with IC50 values in the mM range”.

From US12134788B2, “Engineered prephenate dehydrogenases and arogenate dehydrogenases and methods of using the same” (Wisconsin Alumni Research Foundation, priority 2017, dated 2024)
